These results are taken from patent US20230312672A1 (published 2023).

This assay deals with T1, CD20 peptide on HLA-A*02:01 (human).
T1 peptide: SLFLGILSV
The assay can be described thus: multimer staining.

B1: TCR 79B2 (TCR, V domains shown)
Valpha: GEQVEQLPSILRVQEGSSASINCSYEDSASNYFPWYKQEPGENPKLIIDIRSNMERKQIQELIVLLDKKAKRFSLHITDTQPGDSAMYFCAASANTGANTGKLTFGHGTILRVHP
Vbeta: ETAVFQTPNYHVTQVGNEVSFNCKQTLGHDTMYWYKQDSKKLLKIMFSYNNKQLIVNETVPRRFSPQSSDKAHLNLRIKSVEPEDSAVYLCASSWGLGSYEQYFGPGTRLTVL
On to B1, for which the binding result is “recognises”.
